According to publication PMC12154015, “A Novel Approach for the Activity Assessment of L-Asparaginase Formulations When Dealing with Complex Biological Samples” (International Journal of Molecular Sciences, 2025):

Key:
Assay in all cases: purified protein
[1] = substrate: NC(=O)C[C@H](N)C(=O)O; conditions: PBS 0.01 M, pH 7.4, 37 °C, [S]0 = 10 mM
[2] = substrate: Cc1cc(=O)oc2cc(NC(=O)C[C@H](N)C(=O)O)ccc12; type: biochemical, Escherichia coli; conditions: 37 °C, pH 7.4, table heading says in bovine serum, [S]0 = 1 mM
[3] = substrate: Cc1cc(=O)oc2cc(NC(=O)C[C@H](N)C(=O)O)ccc12; type: biochemical, Rhodospirillum rubrum; conditions: 37 °C, pH 7.4, table heading says in bovine serum, [S]0 = 1 mM
[4] = substrate: NC(=O)C[C@H](N)C(=O)O; type: biochemical, Rhodospirillum rubrum; conditions: PBS 0.01 M, pH 7.4, 37 °C, [S]0 = 10 mM

| Protein | Km [1] | Km [2] | Km [3] | Km [4] |
| --- | --- | --- | --- | --- |
| EcA; E. coli L-ASNase (Veropharm) (Escherichia coli K-12) (protein, commercial native enzyme (Veropharm), unconjugated; monomer 37 kDa, 348 residues as printed (precursor length); tetramer) LPNITILATGGTIAGGGDSATKSNYTVGKVGVENLVNAVPQLKDIANVKGEQVVNIGSQDMNDNVWLTLAKKINTDCDKTDGFVITHGTDTMEETAYFLDLTVKCDKPVVMVGAMRPSTSMSADGPFNLYNAVVTAADKASANRGVLVVMNDTVLDGRDVTKTNTTDVATFKSVNYGPLGYIHNGKIDYQRTPARKHTSDTPFDVSKLNELPKVGIVYNYANASDLPAKALVDAGYDGIVSAGVGNGNLYKSVFDTLATAAKTGTAVVRSSRVPTGATTQDAEVDDAKYGFVASGTLNPQKARVLLQLALTQTKDPQQIQQIFNQY | 0.020 ± 0.003 mM | 20 ± 3 µM |  |  |
| RrA; Rhodospirillum rubrum type I L-ASNase (Rhodospirillum rubrum ATCC 11170) (protein, recombinant, native (unconjugated); 172 residues, monomer 18 kDa; tetramer/dimer) MAVSPSPLRIFTAGGTIDKDYRLEENGLVVGDPFVAEVLKTARLAGAVSIVALSRKDSLDFTEADREAIGRAVGQAVEDHILLTHGTDTMVETARYLGGLPELAGKTVVLSGAMVPGRVGGSDAAFNIGFACAAALMLAPGVYIAMHGKVFDPAKTRKNRGLGRFEPIDDQE |  |  | 4 ± 0.3 mM | 4 ± 0.3 mM |
